This note sets out measurements from publication PMC10899771.

The term stoichiometry N denotes a count of units in the complex or per binding partner.

Data set [1] has as its target BabSPARTA complex (BabAgo:BabTIR-APAZ heterodimer) (Bacillales bacterium). In words: cryo-EM structure.
For data set [2], the target named is T1, BabAgo (short pAgo subunit of BabSPARTA);BabTIR-APAZ (subunit of BabSPARTA) (Bacillales bacterium;Bacillales …, UniProt PDB:8QLP_2;PDB:8QLP_1 1-507;1-452, |).
T1 sequence 1: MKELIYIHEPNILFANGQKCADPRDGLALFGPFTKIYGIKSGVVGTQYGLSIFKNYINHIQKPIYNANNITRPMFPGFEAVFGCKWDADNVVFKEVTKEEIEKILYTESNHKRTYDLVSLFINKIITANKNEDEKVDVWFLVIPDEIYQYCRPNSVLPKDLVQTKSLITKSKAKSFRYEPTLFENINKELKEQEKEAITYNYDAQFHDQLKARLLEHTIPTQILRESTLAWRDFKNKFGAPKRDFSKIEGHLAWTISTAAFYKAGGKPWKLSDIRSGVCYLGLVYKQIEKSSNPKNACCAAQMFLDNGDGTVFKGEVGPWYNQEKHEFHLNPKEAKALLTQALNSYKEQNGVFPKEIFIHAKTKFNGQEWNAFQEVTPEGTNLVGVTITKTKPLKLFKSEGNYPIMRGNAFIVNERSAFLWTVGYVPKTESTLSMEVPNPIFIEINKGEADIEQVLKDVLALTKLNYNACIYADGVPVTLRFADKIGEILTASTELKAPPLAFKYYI
T1 sequence 2: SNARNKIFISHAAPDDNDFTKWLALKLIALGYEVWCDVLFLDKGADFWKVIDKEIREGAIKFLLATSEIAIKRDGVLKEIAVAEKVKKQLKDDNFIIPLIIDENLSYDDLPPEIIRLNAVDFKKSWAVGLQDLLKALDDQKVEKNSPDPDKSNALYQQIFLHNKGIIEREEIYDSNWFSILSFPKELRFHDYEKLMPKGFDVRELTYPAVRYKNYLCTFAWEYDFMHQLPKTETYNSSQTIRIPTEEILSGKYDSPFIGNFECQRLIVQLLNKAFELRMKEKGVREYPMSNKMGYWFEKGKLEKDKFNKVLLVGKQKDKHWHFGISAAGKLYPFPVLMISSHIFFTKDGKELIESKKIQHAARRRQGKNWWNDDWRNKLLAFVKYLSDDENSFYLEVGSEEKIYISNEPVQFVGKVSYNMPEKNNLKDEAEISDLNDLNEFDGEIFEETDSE
In words: cryo-EM structure.

Turning to “BabSPARTA complex (BabAgo:BabTIR-APAZ heterodimer)”, the stoichiometry N in data set [1] amounted to 4.

B1: guide RNA oBK084 / target DNA oBK382 (DNA:RNA)
RNA: UGACGGCUCUAAUCUAUUAGU
DNA: CAACTAATAGATTAGAGCCGTCAAT
modifications: 5'-phosphate on guide RNA
As for B1, the binding result in data set [2] is “binds”.
